Source: IntAct's records for PubMed 31515488

B1: cGMP-dependent protein kinase 1 (Homo sapiens), Q13976 (parent)
chain: MSELEEDFAKILMLKEERIKELEKRLSEKEEEIQELKRKLHKCQSVLPVPSTHIGPRTTRAQGISAEPQTYRSFHDLRQAFRKFTKSERSKDLIKEAILDNDFMKNLELSQIQEIVDCMYPVEYGKDSCIIKEGDVGSLVYVMEDGKVEVTKEGVKLCTMGPGKVFGELAILYNCTRTATVKTLVNVKLWAIDRQCFQTIMMRTGLIKHTEYMEFLKSVPTFQSLPEEILSKLADVLEETHYENGEYIIRQGARGDTFFIISKGTVNVTREDSPSEDPVFLRTLGKGDWFGEKALQGEDVRTANVIAAEAVTCLVIDRDSFKHLIGGLDDVSNKAYEDAEAKAKYEAEAAFFANLKLSDFNIIDTLGVGGFGRVELVQLKSEESKTFAMKILKKRHIVDTRQQEHIRSEKQIMQGAHSDFIVRLYRTFKDSKYLYMLMEACLGGELWTILRDRGSFEDSTTRFYTACVVEAFAYLHSKGIIYRDLKPENLILDHRGYAKLVDFGFAKKIGFGKKTWTFCGTPEYVAPEIILNKGHDISADYWSLGILMYELLTGSPPFSGPDPMKTYNIILRGIDMIEFPKKIAKNAANLIKKLCRDNPSERLGNLKNGVKDIQKHKWFEGFNWEGLRKGTLTPPIIPSVASPTDTSNFDSFPEDNDEPPPDDNSGWDIDF
partner: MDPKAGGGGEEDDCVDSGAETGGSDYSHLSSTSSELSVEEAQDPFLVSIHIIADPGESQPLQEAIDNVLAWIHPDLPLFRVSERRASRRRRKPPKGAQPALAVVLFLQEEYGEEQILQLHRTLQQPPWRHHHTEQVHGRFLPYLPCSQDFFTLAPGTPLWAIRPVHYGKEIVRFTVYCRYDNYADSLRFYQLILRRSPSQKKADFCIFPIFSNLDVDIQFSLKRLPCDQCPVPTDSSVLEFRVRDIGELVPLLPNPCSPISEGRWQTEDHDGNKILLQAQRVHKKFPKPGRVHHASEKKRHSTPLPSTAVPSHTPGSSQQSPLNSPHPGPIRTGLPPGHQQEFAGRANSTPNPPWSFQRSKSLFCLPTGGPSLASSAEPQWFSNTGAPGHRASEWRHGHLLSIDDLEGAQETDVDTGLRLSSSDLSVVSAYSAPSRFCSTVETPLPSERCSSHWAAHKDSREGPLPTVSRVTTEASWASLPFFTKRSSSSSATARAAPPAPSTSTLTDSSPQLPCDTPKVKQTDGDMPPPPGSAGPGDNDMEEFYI
B2: Circadian locomoter output cycles protein kaput (Homo sapiens), O15516 (parent)
chain: MLFTVSCSKMSSIVDRDDSSIFDGLVEEDDKDKAKRVSRNKSEKKRRDQFNVLIKELGSMLPGNARKMDKSTVLQKSIDFLRKHKEITAQSDASEIRQDWKPTFLSNEEFTQLMLEALDGFFLAIMTDGSIIYVSESVTSLLEHLPSDLVDQSIFNFIPEGEHSEVYKILSTHLLESDSLTPEYLKSKNQLEFCCHMLRGTIDPKEPSTYEYVKFIGNFKSLNSVSSSAHNGFEGTIQRTHRPSYEDRVCFVATVRLATPQFIKEMCTVEEPNEEFTSRHSLEWKFLFLDHRAPPIIGYLPFEVLGTSGYDYYHVDDLENLAKCHEHLMQYGKGKSCYYRFLTKGQQWIWLQTHYYITYHQWNSRPEFIVCTHTVVSYAEVRAERRRELGIEESLPETAADKSQDSGSDNRINTVSLKEALERFDHSPTPSASSRSSRKSSHTAVSDPSSTPTKIPTDTSTPPRQHLPAHEKMVQRRSSFSSQSINSQSVGSSLTQPVMSQATNLPIPQGMSQFQFSAQLGAMQHLKDQLEQRTRMIEANIHRQQEELRKIQEQLQMVHGQGLQMFLQQSNPGLNFGSVQLSSGNSSNIQQLAPINMQGQVVPTNQIQSGMNTGHIGTTQHMIQQQTLQSTSTQSQQNVLSGHSQQTSLPSQTQSTLTAPLYNTMVISQPAAGSMVQIPSSMPQNSTQSAAVTTFTQDRQIRFSQGQQLVTKLVTAPVACGAVMVPSTMLMGQVVTAYPTFATQQQQSQTLSVTQQQQQQSSQEQQLTSVQQPSQAQLTQPPQQFLQTSRLLHGNPSTQLILSAAFPLQQSTFPQSHHQQHQSQQQQQLSRHRTDSLPDPSKVQPQ
B3: Syntenin-2 (Homo sapiens), Q9H190 (parent)
chain: MSSLYPSLEDLKVDQAIQAQVRASPKMPALPVQATAISPPPVLYPNLAELENYMGLSLSSQEVQESLLQIPEGDSTAVSGPGPGQMVAPVTGYSLGVRRAEIKPGVREIHLCKDERGKTGLRLRKVDQGLFVQLVQANTPASLVGLRFGDQLLQIDGRDCAGWSSHKAHQVVKKASGDKIVVVVRDRPFQRTVTMHKDSMGHVGFVIKKGKIVSLVKGSSAARNGLLTNHYVCEVDGQNVIGLKDKKIMEILATAGNVVTLTIIPSVIYEHMVKKLPPVLLHHTMDHSIPDA
partner: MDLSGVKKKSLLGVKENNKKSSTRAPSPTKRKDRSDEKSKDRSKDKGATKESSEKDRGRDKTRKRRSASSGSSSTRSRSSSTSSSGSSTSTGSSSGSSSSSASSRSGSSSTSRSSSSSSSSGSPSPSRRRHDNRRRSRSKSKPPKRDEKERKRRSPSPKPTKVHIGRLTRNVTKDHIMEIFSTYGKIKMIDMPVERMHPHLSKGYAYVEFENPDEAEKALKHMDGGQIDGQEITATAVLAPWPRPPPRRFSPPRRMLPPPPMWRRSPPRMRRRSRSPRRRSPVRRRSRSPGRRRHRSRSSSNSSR
B4: Tuftelin-interacting protein 11 (Homo sapiens), Q9UBB9 (parent)
chain: MSLSHLYRDGEGRIDDDDDERENFEITDWDLQNEFNPNRQRHWQTKEEATYGVWAERDSDDERPSFGGKRARDYSAPVNFISAGLKKGAAEEAELEDSDDEEKPVKQDDFPKDFGPRKLKTGGNFKPSQKGFAGGTKSFMDFGSWERHTKGIGQKLLQKMGYVPGRGLGKNAQGIINPIEAKQRKGKGAVGAYGSERTTQSMQDFPVVDSEEEAEEEFQKELSQWRKDPSGSKKKPKYSYKTVEELKAKGRISKKLTAPQKELSQVKVIDMTGREQKVYYSYSQISHKHNVPDDGLPLQSQQLPQSGKEAKAPGFALPELEHNLQLLIDLTEQEIIQNDRQLQYERDMVVNLFHELEKMTEVLDHEERVISNLSKVLEMVEECERRMQPDCSNPLTLDECARIFETLQDKYYEEYRMSDRVDLAVAIVYPLMKEYFKEWDPLKDCTYGTEIISKWKSLLENDQLLSHGGQDLSADAFHRLIWEVWMPFVRNIVTQWQPRNCDPMVDFLDSWVHIIPVWILDNILDQLIFPKLQKEVENWNPLTDTVPIHSWIHPWLPLMQARLEPLYSPIRSKLSSALQKWHPSDSSAKLILQPWKDVFTPGSWEAFMVKNIVPKLGMCLGELVINPHQQHMDAFYWVIDWEGMISVSSLVGLLEKHFFPKWLQVLCSWLSNSPNYEEITKWYLGWKSMFSDQVLAHPSVKDKFNEALDIMNRAVSSNVGAYMQPGARENIAYLTHTERRKDFQYEAMQERREAENMAQRGIGVAASSVPMNFKDLIETKAEEHNIVFMPVIGKRHEGKQLYTFGRIVIYIDRGVVFVQGEKTWVPTSLQSLIDMAK
partner: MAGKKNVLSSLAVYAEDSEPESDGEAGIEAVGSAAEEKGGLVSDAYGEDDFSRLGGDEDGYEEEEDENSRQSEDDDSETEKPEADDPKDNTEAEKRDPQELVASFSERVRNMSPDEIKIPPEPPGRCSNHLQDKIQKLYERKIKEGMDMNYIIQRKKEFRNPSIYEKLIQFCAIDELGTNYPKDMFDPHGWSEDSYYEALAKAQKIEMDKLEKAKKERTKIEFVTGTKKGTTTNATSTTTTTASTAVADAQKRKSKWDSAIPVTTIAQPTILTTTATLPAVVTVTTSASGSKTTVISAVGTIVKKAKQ
B5: Mediator of RNA polymerase II transcription subunit 20 (Homo sapiens), Q9H944 (parent)
chain: MGVTCVSQMPVAEGKSVQQTVELLTRKLEMLGAEKQGTFCVDCETYHTAASTLGSQGQTGKLMYVMHNSEYPLSCFALFENGPCLIADTNFDVLMVKLKGFFQSAKASKIETRGTRYQYCDFLVKVGTVTMGPSARGISVEVEYGPCVVASDCWSLLLEFLQSFLGSHTPGAPAVFGNRHDAVYGPADTMVQYMELFNKIRKQQQVPVAGIR
partner: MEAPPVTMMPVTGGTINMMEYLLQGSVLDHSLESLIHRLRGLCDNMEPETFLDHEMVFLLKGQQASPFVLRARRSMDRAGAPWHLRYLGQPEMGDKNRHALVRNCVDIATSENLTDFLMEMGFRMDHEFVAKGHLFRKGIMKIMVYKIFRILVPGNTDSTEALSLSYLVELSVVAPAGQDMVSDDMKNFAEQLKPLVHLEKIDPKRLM
B6: Protein LDOC1 (Homo sapiens), O95751 (parent)
chain: MVDELVLLLHALLMRHRALSIENSQLMEQLRLLVCERASLLRQVRPPSCPVPFPETFNGESSRLPEFIVQTASYMLVNENRFCNDAMKVAFLISLLTGEAEEWVVPYIEMDSPILGDYRAFLDEMKQCFGWDDDEDDDDEEEEDDY
partner: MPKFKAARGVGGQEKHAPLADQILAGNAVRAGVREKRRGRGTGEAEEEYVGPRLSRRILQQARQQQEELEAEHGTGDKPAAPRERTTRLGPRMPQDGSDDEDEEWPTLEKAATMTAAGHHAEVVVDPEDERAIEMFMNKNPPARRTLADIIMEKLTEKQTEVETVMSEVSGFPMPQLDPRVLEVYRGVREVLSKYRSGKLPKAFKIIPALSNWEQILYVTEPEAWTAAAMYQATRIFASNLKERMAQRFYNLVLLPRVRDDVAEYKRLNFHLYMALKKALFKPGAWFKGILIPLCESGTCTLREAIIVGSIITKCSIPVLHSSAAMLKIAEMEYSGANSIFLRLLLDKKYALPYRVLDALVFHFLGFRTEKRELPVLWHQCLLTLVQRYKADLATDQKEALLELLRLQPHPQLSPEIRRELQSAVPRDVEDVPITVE
B7: Pachytene checkpoint protein 2 homolog (Homo sapiens), Q15645 (parent)
chain: MDEAVGDLKQALPCVAESPTVHVEVHQRGSSTAKKEDINLSVRKLLNRHNIVFGDYTWTEFDEPFLTRNVQSVSIIDTELKVKDSQPIDLSACTVALHIFQLNEDGPSSENLEEETENIIAANHWVLPAAEFHGLWDSLVYDVEVKSHLLDYVMTTLLFSDKNVNSNLITWNRVVLLHGPPGTGKTSLCKALAQKLTIRLSSRYRYGQLIEINSHSLFSKWFSESGKLVTKMFQKIQDLIDDKDALVFVLIDEVESLTAARNACRAGTEPSDAIRVVNAVLTQIDQIKRHSNVVILTTSNITEKIDVAFVDRADIKQYIGPPSAAAIFKIYLSCLEELMKCQIIYPRQQLLTLRELEMIGFIENNVSKLSLLLNDISRKSEGLSGRVLRKLPFLAHALYVQAPTVTIEGFLQALSLAVDKQFEERKKLAAYI
B8: Syntaxin-12 (Homo sapiens), Q86Y82 (parent)
chain: MSYGPLDMYRNPGPSGPQLRDFSSIIQTCSGNIQRISQATAQIKNLMSQLGTKQDSSKLQENLQQLQHSTNQLAKETNELLKELGSLPLPLSTSEQRQQRLQKERLMNDFSAALNNFQAVQRRVSEKEKESIARARAGSRLSAEERQREEQLVSFDSHEEWNQMQSQEDEVAITEQDLELIKERETAIRQLEADILDVNQIFKDLAMMIHDQGDLIDSIEANVESSEVHVERATEQLQRAAYYQKKSRKKMCILVLVLSVIILILGLIIWLVYKTK

Variants of: B1
Details: with FAM124A

effect of a mutation on the interaction | Variant
with no effect | N267S

Variants of: B2
Details: with bmal1_human BMAL1, O00327
bmal1_human BMAL1, O00327, sequence (O00327 whole entry): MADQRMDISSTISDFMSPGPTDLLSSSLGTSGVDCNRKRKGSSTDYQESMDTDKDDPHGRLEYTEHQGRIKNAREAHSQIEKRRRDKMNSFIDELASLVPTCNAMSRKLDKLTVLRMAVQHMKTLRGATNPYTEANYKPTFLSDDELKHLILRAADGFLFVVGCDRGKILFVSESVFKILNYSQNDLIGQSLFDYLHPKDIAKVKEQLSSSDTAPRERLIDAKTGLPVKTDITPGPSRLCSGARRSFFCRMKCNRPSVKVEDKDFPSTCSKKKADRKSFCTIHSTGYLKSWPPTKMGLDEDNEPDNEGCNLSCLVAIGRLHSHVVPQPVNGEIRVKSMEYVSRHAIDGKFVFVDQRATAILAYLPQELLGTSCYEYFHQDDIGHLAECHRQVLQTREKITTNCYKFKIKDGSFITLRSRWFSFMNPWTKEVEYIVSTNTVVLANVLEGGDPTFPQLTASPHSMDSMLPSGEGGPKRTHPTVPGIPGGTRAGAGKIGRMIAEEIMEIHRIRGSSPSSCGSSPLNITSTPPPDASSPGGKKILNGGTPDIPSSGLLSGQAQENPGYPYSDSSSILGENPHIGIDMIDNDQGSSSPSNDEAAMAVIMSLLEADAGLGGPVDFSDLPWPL

effect of a mutation on the interaction | Variant
with no effect | L395I
with no effect | G235E

Variants of: B3
Details: with rnps1_human RNPS1, Q15287

effect of a mutation on the interaction | Variant
disrupting interaction strength | G242R
disrupting interaction strength | G225R
with no effect | V182M

Variants of: B4
Details: with SAP30BP

effect of a mutation on the interaction | Variant
with no effect | R8Q
with no effect | S688L

Variants of: B5
Details: with med18_human MED18, Q9BUE0

effect of a mutation on the interaction | Variant
with no effect | A50T

Variants of: B6
Details: with byst_human BYSL

effect of a mutation on the interaction | Variant
disrupting interaction strength | L12H

Variants of: B7
Details: with meak7_human MEAK7, Q6P9B6
meak7_human MEAK7, Q6P9B6, sequence (Q6P9B6 whole entry): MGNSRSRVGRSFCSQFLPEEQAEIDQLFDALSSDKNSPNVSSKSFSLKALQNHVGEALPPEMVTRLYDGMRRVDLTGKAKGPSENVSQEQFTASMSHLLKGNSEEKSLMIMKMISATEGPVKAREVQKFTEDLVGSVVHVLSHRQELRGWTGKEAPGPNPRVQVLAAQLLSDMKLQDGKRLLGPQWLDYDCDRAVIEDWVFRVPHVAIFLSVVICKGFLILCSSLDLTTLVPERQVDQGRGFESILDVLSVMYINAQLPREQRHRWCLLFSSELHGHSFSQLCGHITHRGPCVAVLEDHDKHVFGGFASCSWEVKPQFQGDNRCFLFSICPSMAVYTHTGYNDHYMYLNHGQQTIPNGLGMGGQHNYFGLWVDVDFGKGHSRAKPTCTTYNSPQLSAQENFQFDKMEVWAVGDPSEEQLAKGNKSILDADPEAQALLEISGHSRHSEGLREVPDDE

effect of a mutation on the interaction | Variant
with no effect | G409E

Variants of: B7
Details: with fnd3b_human FNDC3B

effect of a mutation on the interaction | Variant
with no effect | G409E

Variants of: B8
Details: with dtx2_human DTX2, Q86UW9
dtx2_human DTX2, Q86UW9, sequence (Q86UW9 whole entry): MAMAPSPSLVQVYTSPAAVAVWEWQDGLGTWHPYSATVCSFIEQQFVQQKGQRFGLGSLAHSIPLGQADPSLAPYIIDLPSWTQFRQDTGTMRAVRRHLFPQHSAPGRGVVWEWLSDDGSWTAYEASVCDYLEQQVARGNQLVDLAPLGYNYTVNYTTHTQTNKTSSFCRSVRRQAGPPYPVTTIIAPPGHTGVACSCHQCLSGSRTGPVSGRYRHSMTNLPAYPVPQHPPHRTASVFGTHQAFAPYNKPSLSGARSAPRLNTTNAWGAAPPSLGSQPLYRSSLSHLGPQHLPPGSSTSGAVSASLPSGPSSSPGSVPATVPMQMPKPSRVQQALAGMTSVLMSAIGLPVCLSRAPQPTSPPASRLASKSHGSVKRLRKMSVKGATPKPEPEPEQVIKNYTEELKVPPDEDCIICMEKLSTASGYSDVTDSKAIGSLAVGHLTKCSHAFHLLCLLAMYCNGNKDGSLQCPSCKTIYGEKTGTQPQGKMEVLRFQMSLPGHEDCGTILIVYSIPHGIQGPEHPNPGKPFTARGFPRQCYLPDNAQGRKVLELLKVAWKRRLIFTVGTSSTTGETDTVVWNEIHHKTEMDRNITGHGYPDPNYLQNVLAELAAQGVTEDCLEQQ

effect of a mutation on the interaction | Variant
with no effect | P88R

Variants of: B8
Details: with stx4_human STX4, Q12846
stx4_human STX4, Q12846, sequence (Q12846 whole entry): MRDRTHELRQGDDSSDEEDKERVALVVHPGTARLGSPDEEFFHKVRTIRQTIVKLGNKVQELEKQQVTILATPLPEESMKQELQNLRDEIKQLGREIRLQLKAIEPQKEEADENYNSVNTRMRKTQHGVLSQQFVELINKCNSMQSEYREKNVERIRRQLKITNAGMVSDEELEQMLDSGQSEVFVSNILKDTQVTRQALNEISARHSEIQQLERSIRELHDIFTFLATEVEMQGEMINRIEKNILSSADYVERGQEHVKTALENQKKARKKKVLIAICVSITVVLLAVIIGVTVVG

effect of a mutation on the interaction | Variant
with no effect | P88R
